EC50, pseudovirus neutralization and EC50, pseudovirus neutralization (mAb mixed with irrelevant isotype matched mAb M2) data for 17 molecules are collected here from patent publication US20250304658A1.

“And” between values parts separate entries of the source, which are not always exact repeats. Identical values can stand only once. Like-named read-outs stand apart in the source and are kept apart here.

Test [1] has as its target BK virus VP1 protein, genotype I (BK virus) (UniProt P03088). In words: cell-based or functional assay.
Test [2] shares this target. In words: cell-based or functional assay. This is another data set of the same source.

B1: 6H12 (antibody, V domains shown)
VH: EVQLVESGGGLVQPGGSLRLSCAASGFTFSSYEMNWVRQAPGKGLEWVSYISSGGSSIKYADSVRGRFAFSRDNAENSVHLQMNSLRAEDTAVYYCARVGGSYYYSYAMDVWGQGTAVTVSS
VL: DIQLTQSPSFLSASVGDRVTITCWASQDISSYLAWYQQKPGKAPKLLIYAASTLQSGVPSRFTGSGSGTEFTLTISSLQPEDFATYYCQQPHNSPFSFGPGTKVDVK
B1 showed an EC50, pseudovirus neutralization in test [1] of 3.9 pM. In test [2], the EC50, pseudovirus neutralization (mAb mixed with irrelevant isotype matched mAb M2) came to 0.96 pM.

B2: 11D12 (antibody, V domains shown)
VH: EVQLVESGGGLVQPGGSLRLSCAASGFTFSSYEMNWVRQAPGKGLEWVSYISSGGSSIKYADSVRGRFTFSRDNAENSVFLQMNSLRGEDTAVYYCARVGGSYYYSYAMDVWGQGTAVTVSS
VL: DIQLTQSPSFLSASVGDRVTITCWASQDISSYLAWYQQKPGKAPKLLIYAASTLQSGVPSRFSGSGSGTEFTLTISSLQPEDFATYYCQQPNNYPFSFGPGTKVDVK
Consider B2, for which, in test [1], the EC50, pseudovirus neutralization came out at 10.9 pM.

B3: 7H8 (antibody, V domains shown)
VH: EVQLLESGGGLVQPGGSLRLSCAASGFAFHTYDMTWVRQAPGKGLEWVSGVVGSGINTYYADSVKGRFTISRDNSKSTLYLQMNSLRAEDTAVYYCAKDSSSWFSLHYWGQGTLVTVSS
VL: DIQMTQSPSTLSASVGDRVTITCRASQSISNWLAWYQQKPGKAPKLLIYKASSLESGVPSRFSGSGSGTDFTLTISSLQPDDFASYYCQQYRSYAYTFGQGTKLEIT
Turning to B3, the EC50, pseudovirus neutralization in test [1] turned out to be 59.6 pM.

B4: 7A4 (antibody, V domains shown)
VH: QVQLVESGGDLVKPGGSLRLSCVASGFTFSDYYMNWIRLPPGKGLEWISYIDSSAGAIYYADSVKGRFTVSRDDAKNSLFLHMNSLRADDTAVYYCVRERRDGHKIFDYWGPGTLVTVSS
VL: DIVMTQSPDSLAVSLGERATINCKSSQNILYSSNNKNYLAWYQQKAGQPPKLLIFWSSIRESGVPDRFSGSGSGTDFTLTISSLQAEDVAVYYCQQYYSSPYNFGRGTTLEIK
In turn, B4 showed an EC50, pseudovirus neutralization in test [1] of 9.1 pM.

B5: 1H10 (antibody, V domains shown)
VH: QVHLVESGGDLVKPGGSLRLSCVASGFTFSDYYMNWIRMPPGKGLEWISYIDSSAGAIYYADSVKGRFTVSRDDAKNSLFLHMNNLRADDTAVYYCARERRDGHKIFDCWGPGTLVTVSS
VL: DIVMTQSPDSLAVSLGERATINCKSSQNILYSSNNKNYLAWYQQKAGQPPKLLIFWSSTRESGVPDRFSGSGSGTDFTLTISSLQAEDVAVYYCQQYYSSPYNFGRGTTLEIK
Regarding B5, in test [1], the EC50, pseudovirus neutralization was determined as 68.4 pM.

B6: 9B4 (antibody, V domains shown)
VH: QVQLVESGGDLVKPGGSLRLSCVASGFTFSDYYMNWIRLPPGKGLEWISYIDSSAGAIYYADSVKGRFTVSRDDAKNSLFLHMNSLRADDTAVYYCARERREGHKIFDFWGPGTLVTVSS
VL: DIVMTQSPDSLALSLGERATINCKSSQNILYSSNNKNYLACYQQKAGQPPKLLIFWSSTRESGVPDRFSGSGSGTDFTLTISSLQAEDVAVYYCQQYYSSPYNFGRGTTLEIK
In the case of B6, the EC50, pseudovirus neutralization in test [1] was 72.5 pM.

B7: 1E2 (antibody, V domains shown)
VH: QVQLVESGGDLVKPGGSLRLSCVASGFTFSDYYMNWIRLPPGKGLEWVSYIDSSAGAIYYADSVRGRFTVSRDDAKNSLFLHMNSLRADDTAVYYCARERRDGHKIFDCWGPGTLVTVSS
VL: DIVMTQSPDSLAVSLGERATINCKSSQNILYSSNNKNYLAWYQQKAGQPPKLLIFWSSTRESGVPDRFSGSGSGTDFTLTINSLQAEDVAVYYCQQYYSSPYNFGRGTTLEIK
Molecule B7 had an EC50, pseudovirus neutralization in test [1] of 59 pM.

B8: 5A8 (antibody, V domains shown)
VH: QVQLVESGGDLVKPGGSLRLSCVASGFTFSDYYMNWIRLPPGRGLEWISYIDSSAGAIYYADSVKGRFTVSRDDAKKSLFLYMNSLRADDTAVYYCARERRDGHKIFDYWGPGTLVTVSS
VL: DIVMTQSPDSLAVSLGERATINCKSSQNILYSSNNKNYLAWYQQKAGQPPKLLIFWSSTRESGVPDRFSGSGSGTDFTLTISSLQAEDVAVYYCHQYYSSPYNFGRGTTLEIK
Regarding B8, the EC50, pseudovirus neutralization in test [1] was found to be 20.1 pM.

B9: 8D10 (antibody, V domains shown)
VH: QVHLVESGGDLVKPGGSLRLSCVASGFTFSDYYMNWIRLPPGKGLEWISYIDSSAGAIYYADSVKGRFTVSRDDAKNSMFLHMNSLRADDTAVYYCARERRDGHKIFDYWGPGTLVTVSS
VL: DIVMTQSPDSLAVSLGERATINCKSSQNILYSSNNKNYLAWYQQKAGQPPKLLIFWSSTRESGVPDRFSGSGSGTDFTLTISSLQAEDVAVYYCQQYYSSPYNFGRGTTLEIK
B9 registered an EC50, pseudovirus neutralization in test [1] of 62.9 pM.

B10: 2F7 (antibody, V domains shown)
VH: QVQLVESGGGLVKPGGSLRLSCVASGFTFSDYYMNWIRLPPGRGLQWISYIDSSAGAIYYADSVKGRFTVSRDDAKNSLYLQMNSLRADDTAVYYCARERRDGHKIFDWWGQGTLVTVSS
VL: DIVMTQSPDSLAVSLGERATINCKSSQNILYTSNNKNYLGWYQQKAGQPPKLLIYWSSTRNSGVPDRFSGSGSGTDFTLTISSLQAEDVAVYYCHQYYSSPYTFGQGTNLEIK
As for B10, the EC50, pseudovirus neutralization in test [1] turned out to be 52.5 pM.

B11: 8A11 (antibody, V domains shown)
VH: QVQLVESGGDLVKPGGSLRLSCVASGFTFSDYYMNWIRLPPGKGLEWISYIDSSAGATYYADSVKGRFTVSRDDAKNSLFLHMNSLRAEDTAVYYCARERRSGHKIFDCWGPGTLVTVSS
VL: DIVMTQSPDSLAVSLGERATINCKSSQNILYSSNNKNYLAWYQQKAGQPPKLLIFWSSTRESGVPDRFSGSGSGTDFTLTISSLQAEDVAVYYCQQYYSSPYNFGRGTTLEIK
B11 displayed an EC50, pseudovirus neutralization in test [1] of 108 pM.

B12: 2H1 (antibody, V domains shown)
VH: QVQLVESGGDLVKPGGSLRLSCVASGFTFSDYYMNWIRLPPGKGLEWISYIDSSAGAIYYADSVKGRFTVSRDDAKNSLFLHMNSLRADDTAVYYCARERRDGHKIFDCWGPGTLVTVSS
VL: DIVMTQSPDSLAVSLGERATINCKSSQNILYSSNNKNYLAWYQQKTGQPPKLLIFWSSTRESGVPDRFSGSGSGTDFTLTISSLQAEDVAVYYCQQYYSSPYNFGRGTTLEIK
Take B12: the EC50, pseudovirus neutralization in test [1] was 20.2 pM and 41.8 pM.

B13: 4F7 (antibody, V domains shown)
VH: QVQLVESGGDLVKPGGSLRLSCVASGFTFSDYYMNWIRLPPGKGLEWISYIDSSAGAIYYADSVKGRFTVSRDDAKNSLFLHMNNLRADDTAVYYCARERRDGHKIFDCWGPGTLVTVSS
VL: DIVMTQSPDSLAVSLGERATINCKSSQNILYSSNNKNYLAWYQQKAGQPPKLLIFWSSTRESGVPDRFSGSGSGTDFTLTISSLQAEDVAVYYCQQYYSSPYNFGRGTTLEIK
In test [1], B13 gave an EC50, pseudovirus neutralization of 32.5 pM.

B14: 2B9 (antibody, V domains shown)
VH: EVQLLESGGGLAQPGKSLRLSCAASGFTFSGFAMSWVRQAPGKGLEWVSGISGSGDITYYADSVKGRFTISRDNSKSTLYLQMNSLGAEDTAVYYCAKDPYNWNHGVYGMDVWGQGTTVTVSS
VL: DIQMTQSPSSLSASVGDRVTITCRASQSISSYLNWYQQKPGKAPKFLIYGASSLQSGVPSRFSGSGSGTDFTLTISSLQPEDFAAYYCQQSFNAPLTFGGGTKVEIK
B14: in test [1], the EC50, pseudovirus neutralization was found to be 32.2 pM and the EC50, pseudovirus neutralization (mAb mixed with irrelevant isotype matched mAb M2) came to 2.77 pM. The molecule also gave an EC50, pseudovirus neutralization in test [2] of 4.2 pM.

B15: 9G9 (antibody, V domains shown)
VH: EVQLLESGGGLVQPGGSLRLSCAASGFTFHNYAMSWVRQAPGKGLEWVSGISGSGGTAYYADSVKGRFTISRDNSKNTLYLQMNSLRADDTALYYCAKDRFLEWVEGFDSWGQGTLVTVSS
VL: DIQMTQSPSSLSASVGDRVTITCRASQSIGSFLIWYQQKPGKAPKLLIYAASSLQSGVPSRFSGSGSGTDFTLIISSLQPEDFATYYCQQSYNTPLTFGGGTKVEIK
For B15, in test [1], the EC50, pseudovirus neutralization was 4.7 pM. Besides, the EC50, pseudovirus neutralization (mAb mixed with irrelevant isotype matched mAb M2) in test [2] amounted to 2.76 pM.

B16: 15C10 (antibody, V domains shown)
VH: EVQLLESGGGLVQPGGSLRLSCAASGFTFSSFAMSWVRQAPGKGLEWVSGISASGGTTNYADSVKGRFTISRDNSKNTLYLQMSSLRAEDTAEYYCAKDRFLEWVEGFDPWGQGILVTVSP
VL: DIQMTQSPSSLSASVGDRVTITCRASQSIGRFLIWYQQKPGKAPKLLLYATSSLQSGVPARFTGSGSGTDFTLTIGSLQPEDFATYYCQQSYITPLTFGGGTKVEIK
For B16, the results for the EC50, pseudovirus neutralization in test [1] and in test [2] were 9.4 pM and 0.1 pM, respectively.

B17: 14F5 (antibody, V domains shown)
VH: EVQLLESGGGLVQPGGSLRLSCAVSGFTFSSFAMSWVRQAPGKGLEWVSGISASGGTTNYADSVKGRFTISRDNSKNTLYLQMSSLRAEDTAEYYCAKDRFLEWVEGFDPWGQGILVTVSP
VL: DIQMTQSPSSLSASVGDRVTITCRASQSIGRFLIWYQQKPGKAPKLLLYATSSLQSGVPARFTGSGSGTDFTLTIGSLQPEDFATYYCQQSYITPLTFGGGTKVEIK
In test [1], B17 returned an EC50, pseudovirus neutralization of 10.1 pM.
